The record followed here is paper PMC4939424, “Phosphatidylinositol 3-Kinase-Associated Protein (PI3KAP)/XB130 Crosslinks Actin Filaments through Its Actin Binding and Multimerization Properties In Vitro and Enhances Endocytosis in HEK293 Cells” (Frontiers in Endocrinology, 2016).

The data set concerns the molecule itself. Nature of the data set: native gel or EMSA; blue native (BN)-PAGE of immuno-purified FLAG-PI3KAP/XB130 on NativePAGE Novex Bis-Tris gels, immunoblot with anti-FLAG antibody. A general note: A gel shift assay detects complexes by their altered migration in electrophoresis.

B1: FLAG-tagged recombinant full-length PI3KAP/XB130 (natural protein, mouse, UniProt Q5DTU0-2 1-843, looked up)
chain: MERYKAQGCCCLVVQRRILQVSASLEQLLTELDDFLKVLDQENLSSAAVLKKSGLSELLRLYTKSSSSDEEYIYMNKVSVNGEQNSASPDKVPEEQGPLTNGEPSQHSSAPQKSLPDLPPPKMIPERKQPTVPKIESPEGYYEEAEPFDRSINEDGEAVSSSYESYDEDENSKGKAAPYQWPSPEASIELMRDARICAFLWRKKWLGQWAKQLCVIRDTRLLCYKSSKDHSPQLDVNLRGSSVVHKEKQVRKKGHKLKITPMNADVIVLGLQSKDQAEQWLRVIQEVSGLPSEGASEGNQYTPDAQRLNCQKPDIAEKYLSAAEYGITINGHPEIPETKDVKKKCSAGLKLSNLMNLGRKKSTSLEPPERSLETSSYLNVLVNSQWKSRWCFVRDSHLHFYQDRNRSKVAQQPLSLVGCDVLPDPSPDHLYSFRILHNGEELAKLEAKSSEEMGHWLGLLLSESGSKTDPEELTYDYVDAERVSCIVSAAKTSLLLMQRKFSEPNTYIDGLPSRDCQDDLYDDVEVSELIAVVEPAEEAAPAVDANSGSEPDRVYLDLTPVKSFLHSSSEAQAQASLPAVPHQDDVAETLTVDPKPGTTPEEPHTESPGDPEVQQRQPEVQESSEPIEPTPRITMVKLQAEQQRISFPANCPDTMASAPIAASPPVKEKLRVTSAEIKLGKNRTEAEVKRYTEEKERLERSKEEIRGHLAQLRREKRELKETLLRCTDKGVLAKLEQTLKKIDEECRMEESRRVDLELSIMEVKDNLKKAEAGPVTLGTTVDTTHLDNMSPRPQPKAATPNPPPDSTPVNSASVLKNRPLSVMVTGKGTVLQKAKEWEKKGAS
notes: also called FLAG-PI3KAP/XB130; FLAG-PI3KAPXB130; source: HEK293T, transfected (pShuttle2): purified with anti-FLAG M2 agarose and eluted with FLAG peptide; also in lysate (co-immunoprecipitation)
For B1, the binding result is recorded as “binds”.
